T1: thermostable variant of Streptomyces mobaraensis transglutaminase (Streptomyces mobaraensis, UniProt P81453 79-407)
T1 sequence: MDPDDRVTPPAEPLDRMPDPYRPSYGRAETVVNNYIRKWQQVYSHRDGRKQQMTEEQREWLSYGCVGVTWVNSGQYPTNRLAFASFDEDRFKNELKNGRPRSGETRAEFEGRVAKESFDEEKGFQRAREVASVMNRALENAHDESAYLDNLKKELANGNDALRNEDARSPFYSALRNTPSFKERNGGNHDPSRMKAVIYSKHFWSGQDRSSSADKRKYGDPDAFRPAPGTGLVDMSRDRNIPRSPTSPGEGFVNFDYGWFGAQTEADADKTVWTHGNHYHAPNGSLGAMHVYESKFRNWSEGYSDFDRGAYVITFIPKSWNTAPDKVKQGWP


Tests used:
Assay in all cases: cell-based or functional assay
[1] = target: T1, thermostable variant of Streptomyces …
[2] = target: T1, thermostable variant of Streptomyces …; remark: listed apart in the source
[3] = target: T1, thermostable variant of Streptomyces …; remark: listed apart in the source

| Binder | Improvement in pH responsiveness of inhibitory peptide relative to WT [1] | Improvement in binding affinity of inhibitory peptide relative to WT [2] | Reduction in binding affinity of inhibitory peptide relative to WT [3] |
| --- | --- | --- | --- |
| MDNGAGEETKSYAETYRLTADDVANINALNESAPAASSAGPSFRAN [pro-peptide variant P46N] | > 5 fold | > 1.2 fold | – |
| MDNGAGEETKSYAETYRLTADDVANINALNESAPAASSAGPSFRAA [pro-peptide variant P46A] | > 1.2 fold | > 1.2 fold | – |
| MDNGAGEETKSYAETYRLTADDVANINALNESAPAASSAGPSFRAE [pro-peptide variant P46E] | > 1.2 fold | > 1.2 fold | – |
| MDNGAGEETKSYAETYRLTADDVANINALNESAPAASSAGPSFRAD [pro-peptide variant P46D] | > 1.2 fold | > 1.2 fold | – |
| MDNGAGEETKSYAETYRLTADDVANINALNESAPAASSAGPSFRAI [pro-peptide variant P46I] | > 1.2 fold | > 1.2 fold | – |
| MDNGAGEETKSYAETYRLTADDVANINALNESAPAASSAGPSFRAL [pro-peptide variant P46L] | > 1.2 fold | > 1.2 fold | – |
| MDNGAGEETKSYAETYRLTADDVANINALNESAPAASSAGPSFRAQ [pro-peptide variant P46Q] | > 1.2 fold | > 1.2 fold | – |
| MDNGAGEETCSYAETYRLTADDVANINALNESAPAASSAGPSFRAP [pro-peptide variant K10C] | – | – | > 1.2 fold |
| MDNGAGEETKSYAETYRLTADDVANINALNESAPAASSAGPSFRAK [pro-peptide variant P46K] | > 1.2 fold | > 1.2 fold | – |
| MDNGAGEETKSYAETYRLTADDVANINALNESAPAASSAGPSFRAC [pro-peptide variant P46C] | > 1.2 fold | > 1.2 fold | – |

Second part, the binder after the results:

| Improvement in pH responsiveness of inhibitory peptide relative to WT [1] | Improvement in binding affinity of inhibitory peptide relative to WT [2] | Reduction in binding affinity of inhibitory peptide relative to WT [3] | Binder |
| --- | --- | --- | --- |
| > 1.2 fold | > 1.2 fold | – | MDNGAGEETKSYAETYRLTADDVANINALNESAPAASVAGPSFRAP [pro-peptide variant S38V] |
| > 1.2 fold | > 1.2 fold | – | MDNGAGEETKSYAETYRLTADDVANINALNESAPAASSAGPSFRAS [pro-peptide variant P46S] |
| > 1.2 fold | > 1.2 fold | – | MDNGAGEETKSYAETYRLTADDVANINALNESAPAASSAGPSFRAR [pro-peptide variant P46R] |
| > 1.2 fold | > 1.2 fold | – | MDNGAGEETKSYAETYRLTADDVANINALNESAPAASSAGPSFRAV [pro-peptide variant P46V] |
| – | – | > 1.2 fold | MDNGAGEETKYYAETYRLTADDVANINALNESAPAASSAGPSFRAP [pro-peptide variant S11Y] |
| > 1.2 fold | > 1.2 fold | – | MDNGAGEETKSYAETYRLTADDVANINALNESAPAASSAGPSFRAW [pro-peptide variant P46W] |
| – | – | > 1.2 fold | MDNGAGEETKHYAETYRLTADDVANINALNESAPAASSAGPSFRAP [pro-peptide variant S11H] |
| – | – | > 5 fold | MDNGAGEETKGYAETYRLTADDVANINALNESAPAASSAGPSFRAP [pro-peptide variant S11G] |

Source: patent US20250304927A1, “PRO-PEPTIDE VARIANTS FOR MODULATING ACTIVITY OF TRANSGLUTAMINASES” (CURIE CO. INC., priority 2022, published 2025)
